18 substances from patent US20150004189A1 can be followed below.

pIC50: −log10 of the molar value.

One experiment has as its target HLA-DP DPB1*0201 (human). Put plainly: inhibition of radiolabeled peptide binding to purified HLA-DP.
The target of the next experiment is HLA-DP DPB1*2001 (human). The description is as above.
Experiment [1] deals with HLA-DR molecule DRB1*0162 (so in the source) (human). Put plainly: radiolabeled-peptide competition on purified HLA class II.
The target in experiment [2] is HLA DP molecule DPB1*1401 (human). Put plainly: inhibition of radiolabeled peptide binding to purified HLA DP.
Experiment [3] concerns the target HLA DP molecule DPB1*2001 (human). The description is as above.
Experiment [4] has as its target HLA-DQ molecule DQB1*0202 (human). Put plainly: competition: inhibition of radiolabeled peptide binding to purified HLA.
Experiment [5] addresses HLA-DQ molecule DQB1*0503 (human). The experiment is described as above.
The target of experiment [6] is HLA-DQ molecule DQB1*0502 (human). The description is as above.
Experiment [7] deals with HLA-DQ molecule DQB1*0602 (human). The experiment is described as above.
Experiment [8] deals with HLA DP molecule DPB1*1401 (human). Put plainly: competition vs radiolabeled peptide, purified HLA-DP.
In experiment [9] the target is HLA DP molecule DPB1*2001 (human). The experiment is described as above.
Experiment [10] addresses HLA DP molecule DPB1*0501 (human). The description is as above.

Usually pIC50 stands for the negative decadic logarithm of the IC50, by convention in mol/L. For Aln g 1 (16-30) peptide 3324.0003, the pIC50 in the experiment with HLA-DP DPB1*0201 (human) was 7.44; with HLA-DP DPB1*2001 (human) it was 5.59. Substance “Alt a 1 peptide 3324.0013 (position 111)” had a pIC50 in experiment [1] of 6.07. On the same count and under the same terms, the figure for “Alt a 1 peptide 3324.0014 (position 116)” is 6.30.

Substance Alt a 1 peptide 3324.0015 (position 6) showed a pIC50 in [1] of 6.06. Turning to Alt a 1 peptide 3324.0017 (position 11), in [1], the negative logarithm of the IC50 (pIC50) is 6.02. With “Alt a 1 peptide, position 11 (Peptide ID 3324.0017)”, the pIC50 in [2] is 6.90; in [3] it was 6.74. “Alt a 1 peptide, position 111 (Peptide ID 3324.0013)” gave a negative logarithm of the IC50 (pIC50) in experiment [2] of 5.36. Take “Alt a 1 peptide, position 111, Peptide ID 3324.0013”: the results for the pIC50 in experiment [4] and in experiment [5] were 5.08 and 4.71, respectively. Turning to “Alt a 1 peptide, position 141 (Peptide ID 3324.0011)”, the values for the pIC50 in experiment [2] and in experiment [3] were 5.47 and 5.05, respectively.

Consider “Alt a 1 peptide, position 141, Peptide ID 3324.0011”, for which the pIC50 in [4] was 4.50; in [6] it was 5.22; in experiment [5] it was 5.04; in experiment [7], 5.31. For “Alt a 1 peptide, position 143 (Peptide ID 3324.0016)”, the values for the pIC50 in experiment [2] and in experiment [3] were 5.84 and 5.06, respectively. Regarding “Alt a 1 peptide, position 143, Peptide ID 3324.0016”, the pIC50 in experiment [4] was 5.15; in experiment [6], 5.11; in [7], 7.15. On to “Alt a 5 peptide, position 51, … (Peptide ID 3324.0065)”, for which the figures for the pIC50 in experiment [8] and in experiment [9] were 7.30 and 5.12, respectively. With “Alt a 7 peptide, position 6, … (Peptide ID 3324.0085)”, the pIC50 in experiment [10] is 7.33; in [9], 5.89. For the substance “Alt a 7 peptide, position 190, … (Peptide ID 3324.0080)”, the pIC50 was 6.03 in experiment [8] and 7.11 in [9]. On the same counts, the results for “Cla h 6 peptide, position 161, … (Peptide ID 3324.0588)” are 5.01 and 4.53. As to “Cla h 8 peptide, position 151, … (Peptide ID 3324.0603)”, in [8], the pIC50 is 7.44. For the substance Der p 4 (86-100) peptide 3324.0981, the pIC50 was 6.66 with HLA-DP DPB1*0201 (human) and 7.77 in the experiment with HLA-DP DPB1*2001 (human).
